Patent US20200347131A1 (SICHUAN KELUN BIOTECH BIOPHARMACEUTICAL, published 2020)

T1: human LAG-3 (His tag) (human, UniProt P18627 23-450, limits assumed)
T1 construct: also called LAG-3-His antigen; not shown: His tag
T1 sequence (looked up): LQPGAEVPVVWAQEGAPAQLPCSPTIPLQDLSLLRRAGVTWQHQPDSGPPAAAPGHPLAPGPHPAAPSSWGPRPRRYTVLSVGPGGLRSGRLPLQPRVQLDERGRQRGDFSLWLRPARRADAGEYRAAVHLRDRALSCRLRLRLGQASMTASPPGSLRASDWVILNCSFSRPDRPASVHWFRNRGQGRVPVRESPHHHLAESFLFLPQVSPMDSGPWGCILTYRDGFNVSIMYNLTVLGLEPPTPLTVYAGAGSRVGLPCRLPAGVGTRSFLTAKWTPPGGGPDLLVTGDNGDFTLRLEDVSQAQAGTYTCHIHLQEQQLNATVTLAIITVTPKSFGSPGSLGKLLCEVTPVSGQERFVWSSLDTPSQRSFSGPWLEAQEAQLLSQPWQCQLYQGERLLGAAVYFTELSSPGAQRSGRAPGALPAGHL

T2: human LAG-3 (Uniport entry No. P18627) (human, UniProt P18627 23-450, limits assumed)
T2 sequence (looked up): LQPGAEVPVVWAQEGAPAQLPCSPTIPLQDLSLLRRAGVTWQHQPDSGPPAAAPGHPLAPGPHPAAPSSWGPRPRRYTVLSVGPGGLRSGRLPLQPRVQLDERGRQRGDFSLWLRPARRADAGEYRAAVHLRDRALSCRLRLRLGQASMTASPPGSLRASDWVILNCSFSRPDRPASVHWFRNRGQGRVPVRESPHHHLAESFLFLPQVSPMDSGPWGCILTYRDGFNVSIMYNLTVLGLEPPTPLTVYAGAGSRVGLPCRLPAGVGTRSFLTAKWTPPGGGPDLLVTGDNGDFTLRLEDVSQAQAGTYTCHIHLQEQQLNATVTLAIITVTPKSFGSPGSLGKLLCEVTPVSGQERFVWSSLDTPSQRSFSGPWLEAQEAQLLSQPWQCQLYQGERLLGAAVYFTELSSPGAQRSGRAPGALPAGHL

T3: human LAG-3 on CHO cells (CHO-hLAG-3) (human, UniProt P18627 23-525)
T3 construct: whole, on cells; Cells prepared by Kelun Biotech Co., Ltd; also called CHO cells expressing human LAG-3
T3 sequence (looked up): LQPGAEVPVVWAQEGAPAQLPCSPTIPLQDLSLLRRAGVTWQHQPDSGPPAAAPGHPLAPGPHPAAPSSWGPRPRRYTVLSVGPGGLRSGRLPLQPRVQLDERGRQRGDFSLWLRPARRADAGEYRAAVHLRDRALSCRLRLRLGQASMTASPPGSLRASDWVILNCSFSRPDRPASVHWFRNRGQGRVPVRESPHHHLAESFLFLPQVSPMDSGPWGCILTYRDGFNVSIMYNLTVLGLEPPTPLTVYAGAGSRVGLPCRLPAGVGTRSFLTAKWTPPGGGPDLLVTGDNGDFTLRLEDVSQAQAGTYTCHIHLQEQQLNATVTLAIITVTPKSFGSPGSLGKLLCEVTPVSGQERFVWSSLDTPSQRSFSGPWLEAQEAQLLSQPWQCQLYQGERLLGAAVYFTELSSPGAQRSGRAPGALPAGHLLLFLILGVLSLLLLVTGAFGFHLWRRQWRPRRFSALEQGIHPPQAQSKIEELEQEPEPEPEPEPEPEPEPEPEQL


Legend:
human LAG-3 (His tag) [1] = molecular target: T1, human LAG-3 (His tag); test: FACS competition, antibody blocks the binding of LAG-3-His (12 ug/mL) to MHC II positive A431 cells
Method: Human epidermal cancer cell line A431 (purchased from Nanjing Cobioer Company) is an MHC II positive expression cell line. […] The method was also used to evaluate the biological activity of relevant antibodies.
A431 cells were trypsinized, resuspended in PBS, and the cell density was adjusted to 5×10⁶ cells/mL, 100 μL/well. […] The cells were washed twice with pre-cooled PBS, resuspended in 100 µL of solution containing […] of PE anti-His, and incubated at 4° C. for 0.5 hours, washed twice with pre-cooled PBS, and resuspended in PBS.

[2] = molecular target: T2, human LAG-3 (Uniport entry No. P18627); test: indirect ELISA on plate-coated human LAG-3 (0.1 ug/ml), HRP goat anti-mouse IgG detection
human LAG-3 (His tag) [3] = molecular target: T1, human LAG-3 (His tag); test: BLI (ForteBio Octet), LAG-3 His on Ni-NTA sensor
Method: (§1) The binding affinity constant of the purified murine monoclonal antibody #27 to the antigen was determined by Bio-Layer Interferometry (BLI) using the instrument of a PALL company's ForteBio Octet RED & QK system.

human LAG-3 (His tag) [4] = molecular target: T1, human LAG-3 (His tag); test: BLI (ForteBio Octet), LAG-3 His on Ni-NTA sensor, antibody 3.125-100 nM
Method: as §1

[5] = molecular target: T4, LAG-3-Tag1 of the LAG-3/MHC II kit (CISBIO, ADK000CLAPEF) (human, UniProt P18627 23-450); test: HTRF competition, antibody blocks the binding of LAG-3-Tag1 to MHC II-Tag2 (CISBIO kit)
T4 construct: Kit reagent; The construct is not described
Method: Anti-Tag1-Eu³⁺ is a donor of HTRF (Homogeneous Time-Resolved Fluorescence), and anti-Tag2-XL665 acts as a receptor for HTRF. When the two molecules are close to each other, the fluorescence energy is transferred from the donor to the acceptor, accompanied by appearance of a fluorescent signal at 650 nm.
After mixing the anti-Tag1-Eu³⁺ and anti-Tag2-XL665 in equal volumes, each well was added with 10 μl, mixed well, sealed with a film, and incubated for 1 hour at room temperature.

[6] = molecular target: T3, human LAG-3 on CHO cells (CHO-hLAG-3); test: flow cytometry, FITC-labelled antibody on CHO-hLAG-3 cells
Method: (§2) 5×10⁵ cells per tube of CHO-cynoLAG-3 and CHO-hLAG-3 cells were taken respectively. […] The dilutions were mixed with cells at a ratio of 1:1, and incubated for 30 minutes at room temperature, followed by washing 3 times with pre-cooled PBS and detection by flow cytometry (Benckman, model CytoFlex). The signal values were input into GraphPad Prism to calculate the EC₅₀ values.

[7] = molecular target: T5, cynomolgus monkey LAG-3 on CHO cells (CHO-cynoLAG-3) (cynomolgus monkey); test: flow cytometry, FITC-labelled antibody on CHO-cynoLAG-3 cells
T5 construct: whole, on cells; Cells prepared by Kelun Biotech Co., Ltd
Method: as §2

Binder | Kd (human LAG-3 (His tag) [3]) [nM] | koff (human LAG-3 (His tag) [3]) [s⁻¹] | kon (human LAG-3 (His tag) [3]) [M⁻¹ s⁻¹] | also measured
murine monoclonal antibody #27 (antibody, IgG4, V domains shown, Purified from hybridoma supernatant; also called murine antibody #27; monoclonal antibody produced by hybridoma cell line #27 (CCTCC NO.C2017183)) VH: DVHLQESGPDLVKPSQSLSLTCTVTGYSITSFYSWHWIRQFPGNKLEWMGCIQYSGDTDSNPSLKSRISITRDTSENQLFLHLNSVTTEDTATYYCARSPYDSDPYYVMDYWGQGTSVTVSS VL: DIVMSQSPSSLAVSVGEKITMTCKSSQSLLYSGNQKNYLAWYQQKPGQSPTLLIYWASTRDSGVPDRLTGSGSGTDFTLTISSVKAEDLAVYYCQQYYAYPYTFGGGTKLETK | 0.319 | 3.86e-05 | 121000 | IC50 (human LAG-3 (His tag) [1]): 10.4 nM; Maximum inhibition % (human LAG-3 (His tag) [1]): 84.2%; EC50 (read off the curve) [2]: ~0.05 µg/mL; Kd (human LAG-3 (His tag) [4]): 0.319 nM; koff (human LAG-3 (His tag) [4]): 3.86e-05 s⁻¹; kon (human LAG-3 (His tag) [4]): 121000 M⁻¹ s⁻¹
human-mouse chimeric antibody AB12T2 (antibody, human IgG4 S228P, kappa, V domains shown) VH: DVHLQESGPDLVKPSQSLSLTCTVTGYSITSFYSWHWIRQFPGNKLEWMGCIQYSGDTDSNPSLKSRISITRDTSENQLFLHLNSVTTEDTATYYCARSPYDSDPYYVMDYWGQGTSVTVSS VL: DIVMSQSPSSLAVSVGEKITMTCKSSQSLLYSGNQKNYLAWYQQKPGQSPTLLIYWASTRDSGVPDRLTGSGSGTDFTLTISSVKAEDLAVYYCQQYYAYPYTFGGGTKLETKR | 0.574 | 4.97e-05 | 100000 | 
humanized antibody AB12T3 (antibody, human IgG4, kappa, V domains shown) VH: DVQLQESGPGLVKPSQTLSLTCTVTGYSITSFYSWHWIRQHPGKGLEWMGCIQYSGDTDSNPSLKSRITITRDTSENQLSLKLSSVTAADTAVYYCARSPYDSDPYYVMDYWGQGTLVTVSS VL: DIVMSQSPDSLAVSLGERATITCKSSQSLLYSGNQKNYLAWYQQKPGQPPTLLIYWASTRDSGVPDRLTGSGSGTDFTLTISSLQAEDVAVYYCQQYYAYPYTFGQGTKLEIKR | 0.546 | 5.17e-05 | 94700 | IC50 [5]: 9.45 µg/mL
humanized antibody AB12T4 (antibody, human IgG4 S228P, kappa, V domains shown, also called FITC-AB12T4) VH: DVQLQESGPGLVKPSQTLSLTCTVTGYSITSFYSWHWIRQFPGKGLEWMGCIQYSGDTDSNPSLKSRITITRDTSENQLFLKLSSVTAADTATYYCARSPYDSDPYYVMDYWGQGTLVTVSS VL: DIVMSQSPDSLAVSLGERITMTCKSSQSLLYSGNQKNYLAWYQQKPGQSPTLLIYWASTRDSGVPDRLTGSGSGTDFTLTISSVQAEDVAVYYCQQYYAYPYTFGQGTKLEIKR | 0.258 | 3.09e-05 | 120000 | IC50 (human LAG-3 (His tag) [1]): 12.7 nM; Maximum inhibition % (human LAG-3 (His tag) [1]): 89.3%; EC50 [6]: 12.8 nM; IC50 [5]: 6.7 µg/mL; EC50 [7]: 803 nM
humanized antibody AB12T5 (antibody, human IgG4, kappa, V domains shown) VH: QVQLQESGPGLVKPSQTLSLTCTVSGYSITSFYSWHWIRQHPGKGLEWIGCIQYSGDTDSNPSLKSRVTISVDTSKNQFSLKLSSVTAADTAVYYCARSPYDSDPYYVMDYWGQGTSVTVSS VL: DIVMTQSPDSLAVSLGERATITCKSSQSLLYSGNQKNYLAWYQQKPGQPPKLLIYWASTRDSGVPDRFSGSGSGTDFTLTISSLQAEDVAVYYCQQYYAYPYTFGGGTKLEIKR | 0.365 | 2.28e-05 | 92400 | 
humanized antibody AB12T6 (antibody, human IgG4, kappa, V domains shown) VH: DVQLQESGPGLVKPSQSLSLTCTVSGYSITSFYSWHWIRQHPGKGLEWMGCIQYSGDTYYNPSLKSRVTISVDTSKNQFSLKLSSVTAADTAVYYCARSPYDSDPYYVMDYWGQGTLVTVSS VL: DIVMSQSPDSLAVSLGERATITCKSSQSLLYSGNQKNYLAWYQQKPGQPPKLLIYWASTRDSGVPDRFSGSGSGTDFTLTISSLQAEDVAVYYCQQYYAYPYTFGGGTKLETKR | 0.378 |  |  | 
humanized antibody AB12T7 (antibody, human IgG4, kappa, V domains shown) VH: QVQLQESGPGLVKPSQTLSLTCTVSGYSITSFYSWSWIRQHPGKGLEWIGYIQYSGDTYYNPSLKSRVTISVDTSKNQFSLKLSSVTAADTAVYYCARSPYDSDPYYVMDYWGQGTLVTVSS VL: not shown | 0.359 | 2.36e-05 | 65800 | 
reference antibody AB12T1 (BMS 986016) (antibody, human IgG4 S228P, kappa, V domains shown, also called positive control antibody AB; FITC-AB12T1) VH: QVQLQQWGAGLLKPSETLSLTCAVYGGSFSDYYWNWIRQPPGKGLEWIGEINHRGSTNSNPSLKSRVTLSLDTSKNQFSLKLRSVTAADTAVYYCAFGYSDYEYNWFDPWGQGTLVTVSS VL: EIVLTQSPATLSLSPGERATLSCRASQSISSYLAWYQQKPGQAPRLLIYDASNRATGIPARFSGSGSGTDFTLTISSLEPEDFAVYYCQQRSNWPLTFGQGTNLEIKR |  |  |  | EC50 [7]: 793 nM
